This data set deals with the molecule itself. The data set can be described thus: size exclusion chromatography (Superdex 200) of the CWCas12f-gRNA ribonucleoprotein complex. As for the experimental part:
Using the method for production of ribonucleoprotein particles in Example 1.7, the CWCas12f protein was incubated with the gRNA to produce a ribonucleoprotein complex. The ribonucleoprotein complex was analyzed by size exclusion chromatography using a Superdex 200 column.

B1: CWCas12f protein (enzyme)
chain: MGEKSSRRRRNGKSGAWTAAITSCVGGKMAKNTITKTLKLRIVRPYNSAEVEKIVADEKNNREKIALEKNKDKVKEACSKHLKVAAYCTTQVERNACLFCKARKLDDKFYQKLRGQFPDAVFWQEISEIFRQLQKQAAEIYNQSLIELYYEIFIKGKGIANASSVEHYLSDVCYTRAAELFKNAAIASGLRSKIKSNFRLKELKNMKSGLPTTKSDNFPIPLVKQKGGQYTGFEISNHNSDFIIKIPFGRWQVKKEIDKYRPWEKFDFEQVQKSPKPISLLLSTQRRKRNKGWSKDEGTEAEIKKVMNGDYQTSYIEVKRGSKIGEKSAWMLNLSIDVPKIDKGVDPSIIGGIDVGVKSPLVCAINNAFSRYSISDNDLFHFNKKMFARRRILLKKNRHKRAGHGAKNKLKPITILTEKSERFRKKLIERWACEIADFFIKNKVGTVQMENLESMKRKEDSYFNIRLRGFWPYAEMQNKIEFKLKQYGIEIRKVAPNNTSKTCSKCGHLNNYFNFEYRKKNKFPHFKCEKCNFKENADYNAALNISNPKLKSTKEEP
notes: Recombinant protein purified from E. coli and incubated with engineered sgRNA to form the ribonucleoprotein before size exclusion chromatography; The complex also contains the sgRNA, which is not a protein; also called TnpB; wild-type CWCas12f
For B1, the binding result was “binds”.

(Values after US20260201355A1 (GENKORE, published 2026).)
